Earlier results, collected in PMC4394549.

Target: Arginyl-tRNA synthetase (Methanothermobacter thermautotrophicus) (UniProt O27496)
Sequence of UniProt O27496 (O27496 whole entry): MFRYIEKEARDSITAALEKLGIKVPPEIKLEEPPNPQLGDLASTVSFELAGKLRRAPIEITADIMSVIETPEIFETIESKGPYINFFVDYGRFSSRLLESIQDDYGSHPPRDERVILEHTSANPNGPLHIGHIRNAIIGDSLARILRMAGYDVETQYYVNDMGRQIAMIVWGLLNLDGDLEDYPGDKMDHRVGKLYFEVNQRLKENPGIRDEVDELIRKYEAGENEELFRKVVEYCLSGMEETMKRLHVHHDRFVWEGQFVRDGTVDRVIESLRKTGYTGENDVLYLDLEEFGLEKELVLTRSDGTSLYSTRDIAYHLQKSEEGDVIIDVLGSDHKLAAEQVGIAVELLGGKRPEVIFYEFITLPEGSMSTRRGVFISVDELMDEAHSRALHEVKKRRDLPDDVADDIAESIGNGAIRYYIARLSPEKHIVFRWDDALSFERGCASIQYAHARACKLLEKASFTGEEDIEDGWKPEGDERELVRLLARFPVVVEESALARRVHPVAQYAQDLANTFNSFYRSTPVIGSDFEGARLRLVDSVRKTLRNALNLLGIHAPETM

Kd: 250 nM
Substance: Seryl-tRNA synthetase (from UniProt O27194)
